Results taken from the nanobody polyreactivity screen of Harvey et al. (2022).

Test: yeast display, Sf9 membrane polyspecificity reagent, FACS + sequencing; frameworks hold sequencing errors
Outline: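 Genes from sorted yeast were amplified by colony PCR, read by MiSeq 2 × 250 sequencing and filtered on CDR length. These cells carried a synthetic nanobody library in Saccharomyces cerevisiae BJ5465 and were sorted by FACS into low and high (top ~1%) gates on anti-HA and streptavidin fluorescence. Polyreactivity is labelled according to the gate of origin.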

Question: Which “polyreactivity (PSR sort gate)” value does the source give for “QVQLVESGGGLVQAGGSLRLSCAASGFTFYRYAMGWYRQAPGKERELVAAITQSGGSTYYADSVKGRFTISRDNAKNTVYLQMNSLKPEDTAVYYCAARYRYDYGYGLGYSWGQGTQVTVSS” here?
Answer: high polyreactivity

Question: With “QVQLVESGGGLLQAGGSLRLSCADSGYTFRAYALGWYRQAPGKERELVAAISRGGSTNYADSVKGRFTISRDNAKNTVYLQMYSLKPEDTAVYYCNTAYIVWYSSSYGAYYSGAFDYWGQGTLVTVSS” as the sequence, how does the “polyreactivity (PSR sort gate)” value read?
Answer: high polyreactivity

Question: Which “polyreactivity (PSR sort gate)” value does the source give for “QVQLVESGGGLVQAGGSLRLSCAASGYTFAWYAMGWYRQAPGKERELVAAINNGGSTSYADSVKGRFTISRDNAKNTVYLQMNSLKPEDTAVYYCNADHYGGPHWMDYWGQGTQVTVSS” here?
Answer: low polyreactivity

Question: With “QVQLVESGGGLVQAGGSLRLSCAASGRIFKRYAMGWYRQAPGKERELVAAITRSGTRTYYADSVKGRFTISRDNAKNTVYLQMNSLKPEDTAVYYCAAALGWYSAFGYWGQGTLVTVSS” as the sequence, how does the “polyreactivity (PSR sort gate)” value read?
Answer: high polyreactivity

Question: With “QVQLVESGGGLVQAGGSLRLSCAASGSIFTPNVMGWYRQEPGKERELVAAISQRGGSTYYADSVKGRFTLSRDNAKNTVYLQMNSLKPEDTAVYYCNKDNAVDRLPWFQVTYDYWGQGTQVTVSS” as the sequence, how does the “polyreactivity (PSR sort gate)” value read?
Answer: low polyreactivity

Question: For “QVQLVESGGGLVQAGGSLRLSCAASGLTFIAYAMGWYRQAPGKERELVAAITWIGDSTYYADSVKGRFTISRDNAKNTVYLQMNSLKPEDTAVYYCATDWYGQYNGIYDYWGQGTQVTVSS”, which “polyreactivity (PSR sort gate)” value is on record?
Answer: low polyreactivity

Question: With “QVQLVESGGGLVQAGGSLRLSCAASGGIFGSYAMGWYRQAPGKERELVAAISGGSTYYADSVKGRFTISRDNAKNTVYLQMNSLKPEDTAVYYCAAGWSVWYQDFDYWGQGTQVTVSS” as the sequence, how does the “polyreactivity (PSR sort gate)” value read?
Answer: high polyreactivity

Question: Which “polyreactivity (PSR sort gate)” value does the source give for “QVQLVESGGGLVQAGGSLRLSCAASGRTFHRYAMGWYRQAPGKERELVAAITSSGGSPNYADSVKGRFTISRDNAKNTVYLQMNSLKPEDTAVYYCATDRYRYTSHPWSRGFDYWGQGTQVTVSS” here?
Answer: low polyreactivity

Question: Which “polyreactivity (PSR sort gate)” value does the source give for “QVQLVESGGGLVQAGGSLRLICAASGSIFSVNTMGWYREAPGKERELVATIRTGDSTNYADSVKGRFTISRDNAKNTVYLQMNSLKPEDTAVYYCAAEWSSLNFDYWGQGTQVTVSS” here?
Answer: low polyreactivity

Question: For “QVQLVESRAGLVQAGGSLRLSCAASGRTSWVYAMGWYRHAPGKDRELVAAIRWRGSSTYYADSGKGRFTISRDNAKNTVYLQMNSLKPEVTAVYYCAAAFSFAQSFDSWGQGTQVTVSS”, which “polyreactivity (PSR sort gate)” value is on record?
Answer: high polyreactivity

Question: With “QVQHVESGGGLVQAGGSLRLSSAASGITFPVYAMGWYRPTPGKERELVAAITFSGSNTYYADSVKGRFTISRDNAKNTVYLQMNSLKPEDTAVYYCNAETGGVYFNYYYVGEYYYWGQGTQVTVSS” as the sequence, how does the “polyreactivity (PSR sort gate)” value read?
Answer: low polyreactivity

Question: For “QVQLVESGGGLVQAGGSLRLSCAASGRTFPKYAMGWYRQATGKERELVAAISSSGGNTYYADSVKGRFTISRDKAKTTVYLQMNSLTPEDTAVYYCAARLPRGAYYYWGQGTQLTVSS”, which “polyreactivity (PSR sort gate)” value is on record?
Answer: high polyreactivity

Question: With “QVQLVESGGGLVQAGGSLRLSCAASGSIFEWYAMGWYRQAPGKERELVADISSVGSTYYADSVKGRFTISRDNAKNTVYLQMNSLKPEDTAVYYCNTSYIIWYDSWGQGTQVTVSS” as the sequence, how does the “polyreactivity (PSR sort gate)” value read?
Answer: low polyreactivity

Question: With “QVQHVESGGGLVQAGGSLRLSCAASGSIFWYYAMGWYRKAPVKERELVAAITSSGGRTYYADSVKGRFTISRDNAKNTVYLQMNSLKQEDTAVYYCAARQWWRYDYWGQGTQVTVSS” as the sequence, how does the “polyreactivity (PSR sort gate)” value read?
Answer: high polyreactivity

Question: Which “polyreactivity (PSR sort gate)” value does the source give for “QVQLVESGGGLVQAGASLRLSCAASGRTFYRYAMGWYRQAPGKEREFVAAISNGGSNTRYADSVKGRFTISRDTAKNNVYFQMNSLKPEETAVYYCAARAYQHYNWGQGTQVTVSS” here?
Answer: high polyreactivity

Question: Which “polyreactivity (PSR sort gate)” value does the source give for “QVQLVESGGGLVQAGGSLRLSCAASVSTIARYAMGRYRQAPGKERELVAAISRTGRTYYADSVKGRFTISRDNAKNTVYLQMNSLKPEDTAVYYCNAYYGPRGYGYWGQGTQVTVSS” here?
Answer: high polyreactivity

Question: With “QVQLVESGGCLVQAGGSLRLSCSASGRTFNWKAMGWYRPAPGKERELVAVITSSGTRTYYADSVKGRFTISRDNAKNTVSLQMNSLKPEDTAVYYCANGETYTGPNSRYGQWKKVYYWGQGTQVTVSS” as the sequence, how does the “polyreactivity (PSR sort gate)” value read?
Answer: low polyreactivity

Question: For “QVQLVESGGGLVQAGGSLRLSCAASGRTFIFYAMGWYRQAPVKERELVAAITYSGTSTYYADSVKGRFTISRDNAKNTVYLQMNSLKPEDTAVYYCAKDGQRDANYYWGQGTQVTVSS”, which “polyreactivity (PSR sort gate)” value is on record?
Answer: low polyreactivity

Question: For “QVQLVESGGGLVQAGGSLRLSCAASGRIFGYYAMGWYRQAPGKERELVAAITWSGGTYYADSVKGRFTISRDNAKNTVYLQMNSLKPEDTAVYYCAKSVRNGWQSRFGYWGQGTQVTVSS”, which “polyreactivity (PSR sort gate)” value is on record?
Answer: high polyreactivity

Question: Which “polyreactivity (PSR sort gate)” value does the source give for “QVQLVESGGGLVQAGGSLRLSFAASGRTFSGYAMGWYRQAPGKERELVASISGSGSSTYYADSVKGRFTISRDNAKNTVYLQMNSLKPEHTAVYYCNATRAGENPDGGDEYWGQGTQVTVSS” here?
Answer: high polyreactivity

Question: With “QVQLVESGGGLVQAGGSLRLRCAASGIIFYGNAMGWYRPAPGQERELVAAISRRSGSTYYADSVKGRFTISRDTAKNTVYLQMNSLKPEDTAVYYGNKRAANAVTINDMDYWGQGTQVTVSS” as the sequence, how does the “polyreactivity (PSR sort gate)” value read?
Answer: high polyreactivity

Question: Which “polyreactivity (PSR sort gate)” value does the source give for “QVQLVESGGGLVQAGGSLRLSCAASGSIFRYNTMGWYRQAPGKVRELVATITRRGGSTYYADSVKGRFTISRDNAKNTVYLQMNSVKPEDTAVYYCIADNFGGPYNYWGQGTQVTVSS” here?
Answer: low polyreactivity
